# Data published in IntAct's records for PubMed 25173175.
# B1: Cohesin subunit SA-2 (Homo sapiens), Q8N3U4 (parent)
# chain: MIAAPEIPTDFNLLQESETHFSSDTDFEDIEGKNQKQGKGKTCKKGKKGPAEKGKGGNGGGKPPSGPNRMNGHHQQNGVENMMLFEVVKMGKSAMQSVVDDWIESYKHDRDIALLDLINFFIQCSGCKGVVTAEMFRHMQNSEIIRKMTEEFDEDSGDYPLTMAGPQWKKFKSSFCEFIGVLVRQCQYSIIYDEYMMDTVISLLTGLSDSQVRAFRHTSTLAAMKLMTALVNVALNLSINMDNTQRQYEAERNKMIGKRANERLELLLQKRKELQENQDEIENMMNAIFKGVFVHRYRDAIAEIRAICIEEIGIWMKMYSDAFLNDSYLKYVGWTMHDKQGEVRLKCLTALQGLYYNKELNSKLELFTSRFKDRIVSMTLDKEYDVAVQAIKLLTLVLQSSEEVLTAEDCENVYHLVYSAHRPVAVAAGEFLYKKLFSRRDPEEDGMMKRRGRQGPNANLVKTLVFFFLESELHEHAAYLVDSMWDCATELLKDWECMNSLLLEEPLSGEEALTDRQESALIEIMLCTIRQAAECHPPVGRGTGKRVLTAKEKKTQLDDRTKITELFAVALPQLLAKYSVDAEKVTNLLQLPQYFDLEIYTTGRLEKHLDALLRQIRNIVEKHTDTDVLEACSKTYHALCNEEFTIFNRVDISRSQLIDELADKFNRLLEDFLQEGEEPDEDDAYQVLSTLKRITAFHNAHDLSKWDLFACNYKLLKTGIENGDMPEQIVIHALQCTHYVILWQLAKITESSSTKEDLLRLKKQMRVFCQICQHYLTNVNTTVKEQAFTILCDILMIFSHQIMSGGRDMLEPLVYTPDSSLQSELLSFILDHVFIEQDDDNNSADGQQEDEASKIEALHKRRNLLAAFCKLIVYTVVEMNTAADIFKQYMKYYNDYGDIIKETMSKTRQIDKIQCAKTLILSLQQLFNEMIQENGYNFDRSSSTFSGIKELARRFALTFGLDQLKTREAIAMLHKDGIEFAFKEPNPQGESHPPLNLAFLDILSEFSSKLLRQDKRTVYVYLEKFMTFQMSLRREDVWLPLMSYRNSLLAGGDDDTMSVISGISSRGSTVRSKKSKPSTGKRKVVEGMQLSLTEESSSSDSMWLSREQTLHTPVMMQTPQLTSTIMREPKRLRPEDSFMSVYPMQTEHHQTPLDYNRRGTSLMEDDEEPIVEDVMMSSEGRIEDLNEGMDFDTMDIDLPPSKNRRERTELKPDFFDPASIMDESVLGVSMF
# partner: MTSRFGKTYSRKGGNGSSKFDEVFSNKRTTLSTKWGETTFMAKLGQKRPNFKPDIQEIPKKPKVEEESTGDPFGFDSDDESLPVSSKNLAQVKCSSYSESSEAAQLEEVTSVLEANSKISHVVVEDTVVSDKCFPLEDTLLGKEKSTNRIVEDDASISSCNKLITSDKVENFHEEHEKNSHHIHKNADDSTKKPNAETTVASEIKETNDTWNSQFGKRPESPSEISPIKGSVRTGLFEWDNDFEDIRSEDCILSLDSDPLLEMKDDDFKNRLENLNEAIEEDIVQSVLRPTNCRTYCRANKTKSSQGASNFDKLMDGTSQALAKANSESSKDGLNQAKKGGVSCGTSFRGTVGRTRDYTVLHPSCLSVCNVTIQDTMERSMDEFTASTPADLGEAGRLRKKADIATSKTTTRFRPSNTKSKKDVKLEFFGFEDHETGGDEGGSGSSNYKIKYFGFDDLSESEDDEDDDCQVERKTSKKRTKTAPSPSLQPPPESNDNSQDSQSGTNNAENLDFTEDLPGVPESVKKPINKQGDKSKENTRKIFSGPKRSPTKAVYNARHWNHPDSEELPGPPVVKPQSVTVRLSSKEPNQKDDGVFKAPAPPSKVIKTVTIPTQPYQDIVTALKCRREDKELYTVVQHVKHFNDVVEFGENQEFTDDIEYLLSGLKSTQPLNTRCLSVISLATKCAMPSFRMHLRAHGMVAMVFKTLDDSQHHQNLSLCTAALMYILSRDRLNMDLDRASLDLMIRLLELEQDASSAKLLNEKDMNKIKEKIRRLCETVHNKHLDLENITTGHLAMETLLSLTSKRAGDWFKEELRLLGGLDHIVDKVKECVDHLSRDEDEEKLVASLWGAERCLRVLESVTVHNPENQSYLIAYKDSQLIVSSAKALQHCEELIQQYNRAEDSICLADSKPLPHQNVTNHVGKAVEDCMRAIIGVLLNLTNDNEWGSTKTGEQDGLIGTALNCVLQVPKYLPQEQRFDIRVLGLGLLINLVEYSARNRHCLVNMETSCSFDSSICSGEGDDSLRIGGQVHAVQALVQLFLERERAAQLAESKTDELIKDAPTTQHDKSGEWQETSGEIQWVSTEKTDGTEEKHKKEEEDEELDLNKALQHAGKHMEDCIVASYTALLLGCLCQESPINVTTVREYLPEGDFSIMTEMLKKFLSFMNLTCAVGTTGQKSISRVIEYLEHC
# B2: Double-strand-break repair protein rad21 homolog (Homo sapiens), O60216 (parent)
# chain: MFYAHFVLSKRGPLAKIWLAAHWDKKLTKAHVFECNLESSVESIISPKVKMALRTSGHLLLGVVRIYHRKAKYLLADCNEAFIKIKMAFRPGVVDLPEENREAAYNAITLPEEFHDFDQPLPDLDDIDVAQQFSLNQSRVEEITMREEVGNISILQENDFGDFGMDDREIMREGSAFEDDDMLVSTTTSNLLLESEQSTSNLNEKINHLEYEDQYKDDNFGEGNDGGILDDKLISNNDGGIFDDPPALSEAGVMLPEQPAHDDMDEDDNVSMGGPDSPDSVDPVEPMPTMTDQTTLVPNEEEAFALEPIDITVKETKAKRKRKLIVDSVKELDSKTIRAQLSDYSDIVTTLDLAPPTKKLMMWKETGGVEKLFSLPAQPLWNNRLLKLFTRCLTPLVPEDLRKRRKGGEADNLDEFLKEFENPEVPREDQQQQHQQRDVIDEPIIEEPSRLQESVMEASRTNIDESAMPPPPPQGVKRKAGQIDPEPVMPPQQVEQMEIPPVELPPEEPPNICQLIPELELLPEKEKEKEKEKEDDEEEEDEDASGGDQDQEERRWNKRTQQMLHGLQRALAKTGAESISLLELCRNTNRKQAAAKFYSFLVLKKQQAIELTQEEPYSDIIATPGPRFHII
# partner: B1 chain
# B3: Cohesin subunit SA-2 (Homo sapiens), Q8N3U4 (parent)
# chain: B1 chain
# partner: B2 chain
# Variants of: B1
# Conditions: with wapl_human WAPL
row,effect of a mutation on the interaction,Variant
1,disrupting interaction strength,K330E
2,disrupting interaction strength,D326K
3,disrupting interaction strength,K290E
4,decreasing interaction strength,W334A

# Variants of: B2
# Conditions: with stag2_human STAG2, Q8N3U4
row,effect of a mutation on the interaction,Variant
1,decreasing interaction strength,D327K

# Variants of: B2
# Conditions: with stag2_human STAG2, Q8N3U4
# Remark: another data set of the same source
row,effect of a mutation on the interaction,Variant
1,disrupting interaction strength,L385A;L388A;F389A

# Variants of: B3
# Conditions: with rad21_human RAD21, O60216
row,effect of a mutation on the interaction,Variant
1,disrupting interaction strength,D793K
